We go through five molecules from paper PMC4156074, “Inhibition of Plasma Kallikrein by a Highly Specific Active Site Blocking Antibody” (The Journal of Biological Chemistry, 2014).

In general, Kd refers to the equilibrium constant for the complex coming apart. High values mean weaker binding, low ones tighter binding.

Changes are numbered by the printed parent chain. In names and notes the source's numbering stands.

Holding throughout (conditions): both partners purified
In assay [1] the target is T1, Full-length human plasma kallikrein, activated form (human, UniProt P03952 20-390; P03952 391-638).
T1 construct: also called pKal; active pKal; source: bought: Enzyme Research Laboratories
T1 sequence (P03952 20-390, chain 1 of 2): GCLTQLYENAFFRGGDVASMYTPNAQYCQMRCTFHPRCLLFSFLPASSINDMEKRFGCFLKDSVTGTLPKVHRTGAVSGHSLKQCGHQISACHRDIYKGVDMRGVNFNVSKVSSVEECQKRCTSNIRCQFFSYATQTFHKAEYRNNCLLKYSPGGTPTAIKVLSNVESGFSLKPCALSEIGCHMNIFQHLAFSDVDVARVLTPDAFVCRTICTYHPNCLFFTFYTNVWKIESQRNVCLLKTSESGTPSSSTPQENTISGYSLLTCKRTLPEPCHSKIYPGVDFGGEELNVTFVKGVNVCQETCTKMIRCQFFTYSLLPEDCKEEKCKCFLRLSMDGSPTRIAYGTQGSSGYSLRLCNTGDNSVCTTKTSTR
T1 sequence (P03952 391-638, chain 2 of 2): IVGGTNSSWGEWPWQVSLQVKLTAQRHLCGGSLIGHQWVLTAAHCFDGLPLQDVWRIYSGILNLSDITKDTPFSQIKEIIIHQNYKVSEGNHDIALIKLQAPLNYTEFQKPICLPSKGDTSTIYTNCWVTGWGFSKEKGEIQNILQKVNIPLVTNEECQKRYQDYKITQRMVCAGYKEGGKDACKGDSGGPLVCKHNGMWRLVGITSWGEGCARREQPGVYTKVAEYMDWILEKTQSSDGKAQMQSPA
Put plainly: SPR; BIAcore 3000, 25 °C, HBS-P; 2-chain HMWK amine-coupled on CM5 (~2000 RU); varying pKal flowed 5 min at 20 ul/min; equilibrium RU fit to Equation 3. (In general: In SPR one partner is held on a chip, and binding of the other changes the refractive index at the surface.)

The target of assay [2] is T2, Full-length human plasma kallikrein, activated form (human, UniProt P03952).
T2 construct: also called pKal; active pKal; source: bought: Enzyme Research Laboratories
T2 sequence (P03952 20-390, chain 1 of 2): as the sequence (P03952 20-390, chain 1 of 2) above
T2 sequence (P03952 391-638, chain 2 of 2): as the sequence (P03952 391-638, chain 2 of 2) above
Put plainly: enzyme inhibition (steady state, tight-binding fit); purified Fab fragments on full-length pKal, potency studies like those of Fig. 2A; apparent.

Assay [3] deals with T3, pKal from rat plasma (Rattus norvegicus, UniProt P14272).
T3 construct: also called rat pKal; source: purified from rat plasma by Athens Research and Technology
T3 sequence (P14272 20-638): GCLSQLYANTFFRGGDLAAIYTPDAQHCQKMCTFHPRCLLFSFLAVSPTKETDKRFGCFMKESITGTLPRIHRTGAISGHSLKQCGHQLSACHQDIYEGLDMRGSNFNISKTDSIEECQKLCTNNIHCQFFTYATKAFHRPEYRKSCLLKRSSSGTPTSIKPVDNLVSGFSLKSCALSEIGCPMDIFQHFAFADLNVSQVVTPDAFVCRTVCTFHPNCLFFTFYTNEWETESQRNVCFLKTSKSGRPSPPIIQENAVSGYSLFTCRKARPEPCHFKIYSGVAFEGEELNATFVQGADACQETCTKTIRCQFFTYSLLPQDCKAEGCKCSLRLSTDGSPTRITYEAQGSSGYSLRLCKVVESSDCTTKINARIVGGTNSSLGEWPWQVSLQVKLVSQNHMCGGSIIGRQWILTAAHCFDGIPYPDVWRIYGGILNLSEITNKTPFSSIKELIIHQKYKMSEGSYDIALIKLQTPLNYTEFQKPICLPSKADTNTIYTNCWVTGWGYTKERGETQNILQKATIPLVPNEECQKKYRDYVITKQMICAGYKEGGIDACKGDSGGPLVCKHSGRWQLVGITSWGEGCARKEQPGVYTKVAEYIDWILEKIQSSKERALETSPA
Described as above.

Assay [4] addresses T4, Full-length human plasma prekallikrein (Homo sapiens, UniProt P03952).
T4 construct: human plasma prekallikrein, single-chain zymogen; also called zymogen; source: bought: Enzyme Research Laboratories
Briefly: SPR; BIAcore 3000, 25 °C, HBS-P (10 mM HEPES pH 7.4, 150 mM NaCl, 0.005% P20); DX-2930 captured on goat anti-human Fc IgG on CM5; 500 nM prekallikrein, pKal or pKal-AEBSF injected 5 min at 20 ul/min, 5 min dissociation.

A further assay concerns the target T5, pKal from rabbit plasma (Oryctolagus cuniculus, UniProt G1T127).
T5 construct: also called rabbit pKal; source: purified from rabbit plasma by Athens Research and Technology
Put plainly: enzyme inhibition (steady state, tight-binding fit); DX-2930 on purified pKal of mouse, rat, rabbit and cynomolgus monkey; apparent; data not shown.

A further assay addresses T6, purified pKal from mouse (Mus musculus, UniProt P26262).
T6 construct: also called mouse pKal
The assay is described as above.

In assay [5] the target is T3, pKal from rat plasma. The assay is described as above.
In assay [6] the target is T7, pKal complexed with 2-chain HMWK (Homo sapiens, UniProt P03952;P01042).
T7 construct: heavy chain of 2-chain HMWK, as in m6; light chain of 2-chain HMWK, as in m6; also called pKal·HMWK complex; source: bought proteins (Enzyme Research Laboratories); pKal preincubated with 600 nM (or 4.7 uM) HMWK; copies: + + +
T7 sequence (P03952 20-390, looked up, one chain of several): as the sequence (P03952 20-390, chain 1 of 2) above
Briefly: enzyme inhibition (steady state, tight-binding fit); DX-2930 IgG (up to 10 nM, 1.5-fold dilutions) incubated 1 h at 30 °C with 1 nM pKal, free or preincubated with 600 nM 2-chain HMWK, in 20 mM Tris-HCl pH 7.5, 150 mM NaCl, 1 mM EDTA, 0.1% PEG-8000, 0.1% Triton X-100; substrate H-Pro-Phe-Arg-AMC at 10, 50 or 100 uM; Ki from Ki app by Equation 2, averaged.

T6 sequence (P26262 20-638): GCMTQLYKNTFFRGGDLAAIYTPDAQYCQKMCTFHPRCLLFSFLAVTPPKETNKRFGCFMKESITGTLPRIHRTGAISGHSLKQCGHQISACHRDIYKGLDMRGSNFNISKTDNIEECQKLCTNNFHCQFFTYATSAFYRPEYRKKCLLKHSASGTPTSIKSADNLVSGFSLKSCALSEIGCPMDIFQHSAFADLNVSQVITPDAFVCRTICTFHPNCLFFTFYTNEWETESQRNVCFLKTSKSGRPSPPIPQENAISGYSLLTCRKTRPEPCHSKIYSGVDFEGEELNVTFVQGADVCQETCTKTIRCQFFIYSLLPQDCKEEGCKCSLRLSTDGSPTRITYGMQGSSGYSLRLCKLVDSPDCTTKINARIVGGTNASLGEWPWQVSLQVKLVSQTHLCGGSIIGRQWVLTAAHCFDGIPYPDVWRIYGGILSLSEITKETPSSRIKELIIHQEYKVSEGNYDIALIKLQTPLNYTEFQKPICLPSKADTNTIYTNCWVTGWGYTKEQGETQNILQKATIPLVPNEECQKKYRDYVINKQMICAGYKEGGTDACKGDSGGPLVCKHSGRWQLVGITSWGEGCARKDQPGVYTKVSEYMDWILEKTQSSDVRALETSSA

B1: 2-chain high molecular weight kininogen (treated with pKal to excise bradykinin) (natural protein, human)
chain 1: QESQSEEIDCNDKDLFKAVDAALKKYNSQNQSNNQFVLYRITEATKTVGSDTFYSFKYEIKEGDCPVQSGKTWQDCEYKDAAKAATGECTATVGKRSSTKFSVATQTCQITPAEGPVVTAQYDCLGCVHPISTQSPDLEPILRHGIQYFNNNTQHSSLFMLNEVKRAQRQVVAGLNFRITYSIVQTNCSKENFLFLTPDCKSLWNGDTGECTDNAYIDIQLRIASFSQNCDIYPGKDFVQPPTKICVGCPRDIPTNSPELEETLTHTITKLNAENNATFYFKIDNVKKARVQVVAGKKYFIDFVARETTCSKESNEELTESCETKKLGQSLDCNAEVYVVPWEKKIYPTVNCQPLGMISLMK
chain 2: SSRIGEIKEETTVSPPHTSMAPAQDEERDSGKEQGHTRRHDWGHEKQRKHNLGHGHKHERDQGHGHQRGHGLGHGHEQQHGLGHGHKFKLDDDLEHQGGHVLDHGHKHKHGHGHGKHKNKGKKNGKHNGWKTEHLASSSEDSTTPSAQTQEKTEGPTPIPSLAKPGVTVTFSDFQDSDLIATMMPPISPAPIQSDDDWIPDIQIDPNGLSFNPISDFPDTTSPKCPGRPWKSVSEINPTTQMKESYYFDLTDGLS
notes: heavy chain of human high molecular weight kininogen after excision of bradykinin; light chain of human high molecular weight kininogen after excision of bradykinin; also called 2-chain HMWK; 2-chain kininogen; source: bought: Enzyme Research Laboratories
As to B1, binding in assay [1] was put at a Kd of 72000 pM.

B2: Fab M0201-H06 (Fab, V domains shown)
VH: EVQLLESGGGLVQPGGSLRLSCAASGFTFSHYIMMWVRQAPGKGLEWVSGIYSSGGITVYADSVKGRFTISRDNSKNTLYLQMNSLRAEDTAVYYCAYRRTGVPRRDAFDIWGQGTMVTVSS
VL: DIQMTQSPSTLSASVGDRVTITCRASQSISSWLAWYQQKPGKAPNLLIYKASTLESGVPSRFSGSGSGTEFTLTISSLQPDDFATYYCQQYNTYWTFGQGTKVEIK
notes: M0162-A04 with I103V alone in HV-CDR3; against the heavy chain of m2 it keeps T101 and A108; as the light chain of m2, germ line optimisation aside; source: E. coli, secreted, purified (protein A-Sepharose)
For B2, in assay [2], the Ki was 560 pM.

B3: isolate M0199-A08 (Fab, V domains shown)
VH: B2 VH with T101I, A108E
VL: B2 VL
notes: M0162-A04 with T101I, I103V and A108E in HV-CDR3; as the heavy chain of m2 before germ line optimisation; as the light chain of m2 before germ line optimisation; also called M0199-A08 variant; source: E. coli, secreted, purified (protein A-Sepharose)
Consider B3, for which, in assay [2], the Ki was found to be 50 pM.

B4: Fab M0162-A04 (lead Fab, parent of the affinity maturation) (Fab, V domains shown)
VH: B2 VH with V103I
VL: B2 VL
notes: as the heavy chain of m2 but with the parental HV-CDR3 residues T101, I103, A108; as the light chain of m2, germ line optimisation aside; source: E. coli, secreted, purified (protein A-Sepharose)
Consider B4, for which the Ki (in assay [2]; with pKal from rat plasma [3]) was roughly 5000 pM each time.

B5: DX-2930, fully human IgG1 monoclonal antibody (antibody, V domains shown)
VH: B2 VH with T101I, A108E
VL: B2 VL with N45K
notes: the Fab portion of the heavy chain is in the deposited structures (as the heavy chain of m2); the rest is the human IgG1 constant region (f-allotype); as the light chain of m2 in the deposited structures; IgG1 (f-allotype); Biotinylated for the ELISA on HUVEC; also called germ line-optimized M0199-A08; copies: 2 + 2
Take B5: the binding result in assay [4] is recorded as “no binding (tested: 500 nM)”. In addition, the Ki is 14200 pM with pKal from rabbit plasma, 170 pM in the assay with purified pKal from mouse, 170 pM with pKal from rat plasma [5] and 115 ± 3 pM in assay [6].
